Measured values: patent US20130336947, “PEPTIDES AND USES” (FUNDACIÓ PRIVADA CENTRE DE REGULACIÓ GENÓMICA, published 2013)

Legend:
Conditions in all cases: tags: N-terminal NLS PKKKRKV; TNT T7 expression from PCR product; label: DIG
ZF6xHunt [1] = molecular target: ZF6xHunt (Artificial); assay: EMSA; specific versus mutated sequences
ZF6xHunt [2] = molecular target: ZF6xHunt (Artificial); assay: EMSA; binds equally to (GCA-GCT)x3
ZF6xHunt [3] = molecular target: ZF6xHunt (Artificial); assay: EMSA; binds equally to (GCA)x6

Chain of ZF6xHunt (Artificial) (chain, as listed by the source): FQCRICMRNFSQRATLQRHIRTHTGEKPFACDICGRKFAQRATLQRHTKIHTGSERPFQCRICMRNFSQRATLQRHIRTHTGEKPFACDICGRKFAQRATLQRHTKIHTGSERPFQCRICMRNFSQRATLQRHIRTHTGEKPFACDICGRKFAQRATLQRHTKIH

B1: (CAG)x7 probe (dsDNA)
DNA 1: CAGCAGCAGCAGCAGCAGCAG
DNA 2: CTGCTGCTGCTGCTGCTGCTG
- binding result (ZF6xHunt [1]): binds

B2: (GCA)x6 probe (dsDNA)
DNA 1: GCAGCAGCAGCAGCAGCA
DNA 2: TGCTGCTGCTGCTGCTGC
- binding result (ZF6xHunt [2]): binds

B3: (GCA-GCT)x3 alternate probe (dsDNA)
DNA 1: GCAGCTGCAGCTGCAGCT
DNA 2: AGCTGCAGCTGCAGCTGC
- binding result (ZF6xHunt [3]): binds
